Assay results: patent publication US11484611B2, “Method for sterilizing biological materials” (FM&G Biomed Co., Ltd., priority 2006, dated 2022)

What was measured:
Assay type in all cases: physicochemical
[1] = Fluorescence intensity of riboflavin solutions under ultraviolet irradiation; conditions: aqueous solution; compared with untreated riboflavin solutions; higher intensity = degradation
Description: Dehydrated riboflavin was untreated, sterilized by autoclave, or sterilized with ozone. Samples were then dissolved in water to prepare six riboflavin solutions, i.e., solution 1 (100 mg/mL, autoclaved), solution 2 (100 mg/mL, ozone-sterilized), solution 3 (100 mg/mL, untreated), solution 4 (50 mg/mL, autoclaved), solution 5 (50 mg/mL, ozone-sterilized), and solution 6 (50 mg/mL, untreated). Fluorescence intensities of the six solutions were observed under ultraviolet irradiation.

[2] = Acrylamide gel electrophoresis of sterilized pepsin and bromelain; conditions: 5% acrylamide gel, Coomassie blue
Description: Samples of two dehydrated enzymes, i.e., pepsin and bromelain, were untreated, sterilized by autoclave, or sterilized with ozone. Subsequently, the samples were dissolved acetate solutions, analyzed by 5% acrylamide gel electrophoresis, and stained with Coomassie blue.

[3] = Molecular property of sterilized collagen by acrylamide gel electrophoresis
Description: Molecular Property of Sterilized Collagen: equivalent amounts of dehydrated collagen were subjected to the following respective treatments: (1) non-treatment; (2) treatment with ozone gas, as described in Example 1; (3) treatment with ultraviolet irradiation for 12 hours; (4) immersion in 75 vol. % ethanol for 4 hours; (5) immersion in 2 vol. % formaldehyde for 1 hour; or (6) autoclave sterilization under high-temperature and high-pressure. Afterwards, each of the samples from the aforementioned treatments was dissolved in acetate solution, analyzed by 5% acrylamide gel electrophoresis, and stained with Coomassie blue.

[4] = Capillary electrochromatography of sterilized hyaluronan; conditions: absorbance at 194 nm, corresponds to amount of hyaluronan
Description: Two equivalent amounts of hyaluronan (average molecular weight: 58 kDa), were respectively subjected to ozone sterilization and autoclave sterilization. Subsequently, the sterilized samples were analyzed by capillary electrochromatography using a fused silica capillary and a 50 mM phosphate buffer (pH 2.99). Separations were carried out at 25 kV and a column temperature of 25° C. Absorbance was detected at 194 nm. Shown in Table 3 below are the areas under the peak for each of the two samples, which correspond to the amount of hyaluronan contained therein. An untreated sample was included as the control.

Compound: Cc1cc2nc3c(=O)[nH]c(=O)nc-3n(C[C@H](O)[C@H](O)[C@H](O)CO)c2cc1C [solution 1, riboflavin]
- fluorescence intensity under ultraviolet irradiation [1]: higher than those of the untreated control solutions

Compound: Cc1cc2nc3c(=O)[nH]c(=O)nc-3n(C[C@H](O)[C@H](O)[C@H](O)CO)c2cc1C [solution 4, riboflavin]
- fluorescence intensity under ultraviolet irradiation [1]: higher than those of the untreated control solutions

Compound: bromelain
- band in electrophoresis gel ([2]; autoclaved): only showed an indistinct band
- band in electrophoresis gel ([2]; ozone-treated): the same band as the control

Compound: collagen
- bands of α1, α2 and β chains in electrophoresis gel ([3]; autoclave sterilization, high-temperature and high-pressure, lane (6)): mostly degraded
- bands of α1, α2 and β chains in electrophoresis gel ([3]; immersion in 2 vol. % formaldehyde for 1 hour, lane (5)): showed no bands
- bands of α1, α2 and β chains in electrophoresis gel ([3]; immersion in 75 vol. % ethanol for 4 hours, lane (4)): only showed indistinct bands
- bands of α1, α2 and β chains in electrophoresis gel ([3]; treated by ozone gas, lane (2), 5% acrylamide gel, Coomassie blue): substantially the same as the control
- bands of α1, α2 and β chains in electrophoresis gel ([3]; ultraviolet irradiation for 12 hours, lane (3)): partially polymerized and cleaved

Compound: hyaluronan
- Area under the Peak ([4]; Autoclaved): 633930
- Area under the Peak ([4]; Ozone-treated): 814725

Compound: pepsin
- band in electrophoresis gel ([2]; autoclaved): a band with substantially reduced stain density
- band in electrophoresis gel ([2]; ozone-treated): a single band that was the same as that shown by untreated pepsin
